These results are taken from patent publication US20230348881.

Series [1] deals with Mutant 2, modified PPE proprotein with the MMP12 cleavage site, PPE optimized (SEQ ID NO: 9).
The target of series [2] is wild-type PPE proprotein as used in Example 2.
Series [3] addresses exemplary modified PPE proproteins.
Series [4] has as its target Mutant 3, modified PPE proprotein with the MMP12 cleavage site, balanced (SEQ ID NO: 10).

Chain of Mutant 3, modified PPE proprotein with the MMP12 cleavage site, balanced (SEQ ID NO: 10) (chain, as listed by the source mutant): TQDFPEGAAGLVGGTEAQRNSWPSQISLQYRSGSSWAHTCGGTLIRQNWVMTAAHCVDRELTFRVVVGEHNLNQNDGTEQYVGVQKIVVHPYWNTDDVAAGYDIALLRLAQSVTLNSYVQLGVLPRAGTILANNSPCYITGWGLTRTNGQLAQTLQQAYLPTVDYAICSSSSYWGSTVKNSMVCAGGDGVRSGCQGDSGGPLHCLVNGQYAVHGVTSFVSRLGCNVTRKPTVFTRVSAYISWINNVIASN
Chain of wild-type PPE proprotein as used in Example 2 (chain, as listed by the source): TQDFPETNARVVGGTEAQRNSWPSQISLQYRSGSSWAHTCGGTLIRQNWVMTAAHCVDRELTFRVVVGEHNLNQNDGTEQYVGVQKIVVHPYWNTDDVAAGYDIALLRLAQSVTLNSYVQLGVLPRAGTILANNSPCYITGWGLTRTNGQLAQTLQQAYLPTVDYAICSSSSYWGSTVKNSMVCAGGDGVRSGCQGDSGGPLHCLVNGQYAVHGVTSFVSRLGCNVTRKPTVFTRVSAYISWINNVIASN
Chain of Mutant 2, modified PPE proprotein with the MMP12 cleavage site, PPE optimized (SEQ ID NO: 9) (chain, as listed by the source mutant): as the sequence (chain, as listed by the source) above, with T7G, N8A, R10G counted along it

B1: human MMP12 (matrix metalloproteinase-12) (protein)
chain: GPVWRKHYITYRINNYTPDMNREDVDYAIRKAFQVWSNVTPLKFSKINTGMADILVVFARGAHGDFHAFDGKGGILAHAFGPGSGIGGDAHFDEDEFWTTHSGGTNLFLTAVHEIGHSLGLGHSSDPKAVMFPTYKYVDINTFRLSADDIRGIQSLYG
With B1, the figures for the “protease cleavage by SDS-PAGE and Coomassie blue staining” value in series [1] and in series [4] were “the MMP12 protease cleaved the exemplary modified PPE proteins designated as Mutant 2 (3A)” and “the MMP12 protease cleaved the exemplary modified PPE proteins designated as ... Mutant 3 (3B)”, respectively. Further, the “catalytic activity after protease digestion (colorimetric substrate assay), FIG. 4B” value is “catalytically-inactive after incubation with MMP12 or no protease” in series [2] and “catalytically-active after incubation with MMP12” in series [3]. Moreover, the “catalytic activity after protease digestion (colorimetric substrate assay, N-Methoxysuccinyl-Ala-Ala-Pro-Val p-nitroanilide), FIG. 4A” value in series [3] was “catalytically-active after incubation by MMP12, relative to the activity of the native PPE as a control”.

B2: human MMP7 (protein)
chain: YSLFPNSPKWTSKVVTYRIVSYTRDLPHITVDRLVSKALNMWGKEIPLHFRKVVWGTADIMIGFARGAHGDSYPFDGPGNTLAHAFAPGTGLGGDAHFDEDERWTDGSSLGINFLYAATHELGHSLGMGHSSDPNAVMYPTYGNGDPQNFKLSQDDIKGIQKLYGKRSNSRKK
In the case of B2, the “catalytic activity after protease digestion (colorimetric substrate assay), FIG. 4B” value in series [3] is listed as “partially-catalytically-active after incubation with MMP7”.
